Experimental data from the supplement of paper PMC10065799, “High-throughput profiling of sequence recognition by tyrosine kinases and SH2 domains using bacterial peptide display” (eLife, 2023).

Key:
[1] = target: c-Src SH2; experiment: SH2 binding enrichment of the phosphorylated peptide, bacterial display (enrichment ratio); higher = better substrate or ligand; peptides without Tyr show the background
[2] = target: Grb2 SH2 (UniProt P62993); experiment: as above
[3] = target: SHP2-C SH2; experiment: as above
[4] = target: FGFR1 (UniProt P11362); experiment: phosphorylation enrichment, bacterial display (enrichment ratio); higher = better substrate or ligand; peptides without Tyr show the background
Chain of FGFR1 (P11362 whole entry, looked up): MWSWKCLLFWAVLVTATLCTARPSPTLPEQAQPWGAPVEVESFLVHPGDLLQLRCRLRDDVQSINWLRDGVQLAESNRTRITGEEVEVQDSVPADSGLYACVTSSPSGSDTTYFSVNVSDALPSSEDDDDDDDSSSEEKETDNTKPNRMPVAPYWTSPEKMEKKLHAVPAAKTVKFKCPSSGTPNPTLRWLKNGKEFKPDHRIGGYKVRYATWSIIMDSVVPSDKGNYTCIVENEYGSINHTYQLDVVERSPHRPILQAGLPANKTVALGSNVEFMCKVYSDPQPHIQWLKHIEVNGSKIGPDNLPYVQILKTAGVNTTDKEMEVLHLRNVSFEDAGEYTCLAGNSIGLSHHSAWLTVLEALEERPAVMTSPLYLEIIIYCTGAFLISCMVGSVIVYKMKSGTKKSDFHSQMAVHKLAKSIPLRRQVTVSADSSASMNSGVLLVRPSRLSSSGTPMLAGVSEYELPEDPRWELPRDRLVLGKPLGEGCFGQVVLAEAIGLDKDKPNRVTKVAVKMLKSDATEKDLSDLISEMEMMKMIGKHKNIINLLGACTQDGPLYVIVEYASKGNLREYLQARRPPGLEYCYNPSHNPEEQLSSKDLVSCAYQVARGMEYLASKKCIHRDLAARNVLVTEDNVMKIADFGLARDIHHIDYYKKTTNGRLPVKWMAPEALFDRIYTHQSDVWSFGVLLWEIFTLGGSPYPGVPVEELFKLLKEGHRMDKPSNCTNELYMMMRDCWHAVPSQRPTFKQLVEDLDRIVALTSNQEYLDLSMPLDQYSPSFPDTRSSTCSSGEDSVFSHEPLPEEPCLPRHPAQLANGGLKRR

[5] = target: Fes (UniProt P07332); experiment: as above
Chain of Fes (P07332 whole entry, looked up): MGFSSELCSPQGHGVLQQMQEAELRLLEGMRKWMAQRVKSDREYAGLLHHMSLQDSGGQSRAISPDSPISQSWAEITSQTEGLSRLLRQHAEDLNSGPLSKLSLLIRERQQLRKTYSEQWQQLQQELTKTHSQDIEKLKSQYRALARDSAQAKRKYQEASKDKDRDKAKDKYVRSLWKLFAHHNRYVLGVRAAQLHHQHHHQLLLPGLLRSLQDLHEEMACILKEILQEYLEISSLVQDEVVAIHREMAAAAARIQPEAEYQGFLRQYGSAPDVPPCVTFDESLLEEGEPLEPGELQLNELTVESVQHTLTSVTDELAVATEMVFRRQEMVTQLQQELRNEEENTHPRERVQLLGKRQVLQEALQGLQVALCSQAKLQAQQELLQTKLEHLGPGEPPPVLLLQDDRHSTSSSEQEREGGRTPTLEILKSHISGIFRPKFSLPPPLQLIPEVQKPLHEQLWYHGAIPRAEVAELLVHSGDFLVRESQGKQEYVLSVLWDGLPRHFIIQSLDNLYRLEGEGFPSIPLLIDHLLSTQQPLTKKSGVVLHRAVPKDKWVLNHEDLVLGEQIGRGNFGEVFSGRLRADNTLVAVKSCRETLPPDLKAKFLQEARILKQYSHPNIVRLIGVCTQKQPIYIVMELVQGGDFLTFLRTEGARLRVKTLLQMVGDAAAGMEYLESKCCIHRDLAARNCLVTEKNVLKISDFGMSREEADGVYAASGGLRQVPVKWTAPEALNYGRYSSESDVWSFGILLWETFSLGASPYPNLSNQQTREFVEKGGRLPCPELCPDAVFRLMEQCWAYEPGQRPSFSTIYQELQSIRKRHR

[6] = target: Jak2 (UniProt O60674); experiment: as above
Chain of Jak2 (O60674 whole entry, looked up): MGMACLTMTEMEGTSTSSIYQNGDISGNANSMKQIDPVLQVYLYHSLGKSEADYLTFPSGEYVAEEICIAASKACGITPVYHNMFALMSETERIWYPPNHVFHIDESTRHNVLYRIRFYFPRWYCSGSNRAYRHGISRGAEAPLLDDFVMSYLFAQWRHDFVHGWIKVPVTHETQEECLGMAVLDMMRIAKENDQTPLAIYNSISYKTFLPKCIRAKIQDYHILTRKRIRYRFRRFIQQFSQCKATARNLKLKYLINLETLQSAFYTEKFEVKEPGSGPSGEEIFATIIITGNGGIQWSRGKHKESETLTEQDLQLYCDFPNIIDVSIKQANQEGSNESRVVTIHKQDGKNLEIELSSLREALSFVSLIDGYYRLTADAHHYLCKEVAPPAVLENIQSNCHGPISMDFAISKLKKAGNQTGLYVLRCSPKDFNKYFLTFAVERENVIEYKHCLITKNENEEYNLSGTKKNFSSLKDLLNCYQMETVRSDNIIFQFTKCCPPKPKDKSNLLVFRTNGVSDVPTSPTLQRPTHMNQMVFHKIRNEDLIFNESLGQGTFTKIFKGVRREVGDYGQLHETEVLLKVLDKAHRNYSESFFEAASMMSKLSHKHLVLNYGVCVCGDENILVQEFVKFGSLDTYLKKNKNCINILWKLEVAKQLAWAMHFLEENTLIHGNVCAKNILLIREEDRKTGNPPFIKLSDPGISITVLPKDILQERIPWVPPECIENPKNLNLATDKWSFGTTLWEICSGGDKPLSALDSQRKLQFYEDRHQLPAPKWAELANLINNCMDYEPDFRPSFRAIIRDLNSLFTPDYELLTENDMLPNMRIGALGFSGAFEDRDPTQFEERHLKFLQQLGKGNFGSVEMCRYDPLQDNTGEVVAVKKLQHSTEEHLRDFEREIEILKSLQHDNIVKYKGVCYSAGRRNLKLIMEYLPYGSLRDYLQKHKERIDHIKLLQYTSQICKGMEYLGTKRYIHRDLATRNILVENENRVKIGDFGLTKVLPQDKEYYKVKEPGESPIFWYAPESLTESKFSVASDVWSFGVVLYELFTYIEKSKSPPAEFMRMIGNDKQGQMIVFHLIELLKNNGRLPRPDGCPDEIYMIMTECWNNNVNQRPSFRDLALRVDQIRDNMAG

[7] = system: AncSZ; experiment: as above
[8] = system: Fer (mouse); experiment: as above
[9] = target: Hck (UniProt P08631); experiment: as above
Chain of Hck (P08631 whole entry, looked up): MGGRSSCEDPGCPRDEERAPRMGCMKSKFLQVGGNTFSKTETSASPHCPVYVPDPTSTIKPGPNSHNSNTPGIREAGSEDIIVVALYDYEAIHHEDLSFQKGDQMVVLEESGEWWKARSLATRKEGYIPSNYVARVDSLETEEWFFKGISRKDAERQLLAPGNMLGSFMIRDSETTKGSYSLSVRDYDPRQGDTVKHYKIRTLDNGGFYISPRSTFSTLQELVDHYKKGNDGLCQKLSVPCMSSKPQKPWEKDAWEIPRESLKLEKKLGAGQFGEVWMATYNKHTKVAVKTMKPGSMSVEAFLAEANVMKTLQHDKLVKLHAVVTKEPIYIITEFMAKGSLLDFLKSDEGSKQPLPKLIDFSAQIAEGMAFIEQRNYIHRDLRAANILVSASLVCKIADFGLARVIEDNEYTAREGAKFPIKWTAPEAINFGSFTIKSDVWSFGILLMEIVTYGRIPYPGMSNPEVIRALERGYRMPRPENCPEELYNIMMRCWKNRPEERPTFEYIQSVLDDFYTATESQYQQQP

[10] = target: Fyn (UniProt P06241); experiment: as above
Chain of Fyn (P06241 whole entry, looked up): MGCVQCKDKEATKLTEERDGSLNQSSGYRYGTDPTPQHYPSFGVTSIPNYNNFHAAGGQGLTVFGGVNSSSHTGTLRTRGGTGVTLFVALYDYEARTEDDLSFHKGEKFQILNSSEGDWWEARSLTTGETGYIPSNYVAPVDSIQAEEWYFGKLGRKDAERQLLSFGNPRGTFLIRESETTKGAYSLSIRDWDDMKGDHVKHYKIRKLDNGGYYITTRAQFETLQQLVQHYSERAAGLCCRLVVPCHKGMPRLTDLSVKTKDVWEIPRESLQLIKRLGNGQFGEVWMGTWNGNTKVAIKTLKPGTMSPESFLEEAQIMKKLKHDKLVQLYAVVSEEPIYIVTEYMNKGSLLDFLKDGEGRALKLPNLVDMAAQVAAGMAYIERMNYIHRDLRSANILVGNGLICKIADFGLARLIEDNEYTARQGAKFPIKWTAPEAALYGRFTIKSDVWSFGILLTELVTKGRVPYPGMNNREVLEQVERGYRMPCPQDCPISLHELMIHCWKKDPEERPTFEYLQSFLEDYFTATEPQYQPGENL

[11] = target: EPHB1 (UniProt P54762); experiment: as above
[12] = target: MERTK (UniProt Q12866); experiment: as above
Chain of MERTK (Q12866 whole entry, looked up): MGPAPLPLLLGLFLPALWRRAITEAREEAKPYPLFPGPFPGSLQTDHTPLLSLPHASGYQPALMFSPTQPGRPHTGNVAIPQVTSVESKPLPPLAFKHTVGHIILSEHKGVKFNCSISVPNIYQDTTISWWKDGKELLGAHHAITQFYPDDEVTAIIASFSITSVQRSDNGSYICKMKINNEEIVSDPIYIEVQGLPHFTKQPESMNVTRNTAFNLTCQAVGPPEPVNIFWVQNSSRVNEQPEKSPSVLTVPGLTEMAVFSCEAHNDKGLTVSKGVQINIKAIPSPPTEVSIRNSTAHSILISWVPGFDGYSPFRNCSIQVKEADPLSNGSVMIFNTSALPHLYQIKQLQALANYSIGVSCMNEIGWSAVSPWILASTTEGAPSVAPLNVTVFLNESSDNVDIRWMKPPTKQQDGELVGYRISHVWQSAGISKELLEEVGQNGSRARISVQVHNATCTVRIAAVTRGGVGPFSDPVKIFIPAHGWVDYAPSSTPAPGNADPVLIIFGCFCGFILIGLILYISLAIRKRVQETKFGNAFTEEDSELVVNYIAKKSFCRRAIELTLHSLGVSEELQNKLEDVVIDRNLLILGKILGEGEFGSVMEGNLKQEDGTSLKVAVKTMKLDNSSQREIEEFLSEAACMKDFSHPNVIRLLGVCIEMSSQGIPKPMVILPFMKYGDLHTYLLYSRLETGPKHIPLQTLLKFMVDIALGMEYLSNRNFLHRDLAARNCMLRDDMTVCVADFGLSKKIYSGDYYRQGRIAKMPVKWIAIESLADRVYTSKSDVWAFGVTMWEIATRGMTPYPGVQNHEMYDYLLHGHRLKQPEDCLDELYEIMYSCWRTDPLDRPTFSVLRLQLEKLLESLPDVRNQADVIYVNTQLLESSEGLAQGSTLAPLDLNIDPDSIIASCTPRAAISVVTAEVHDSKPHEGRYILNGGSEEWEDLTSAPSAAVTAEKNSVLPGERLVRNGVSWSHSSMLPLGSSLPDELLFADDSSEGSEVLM

[13] = system: c-Abl (mouse); experiment: as above
[14] = target: EPHB2 (UniProt P29323); experiment: as above
[15] = target: FGFR3 (UniProt P22607); experiment: as above
[16] = system: c-Src; experiment: as above
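For SH2 binding enrichment of the phosphorylated peptide, bacterial display in this document: peptide library displayed on the E. coli surface as eCPX fusions, selected cells deep-sequenced, score is each peptide's frequency after selection divided by its frequency in the input.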
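For phosphorylation enrichment, bacterial display in this document: 11-residue human phosphosite peptides and single-mutation variants displayed on the E. coli surface, counted by deep sequencing, each peptide's frequency after selection divided by its frequency in the unselected input library; frequency after pTyr selection over input frequency; kinase dosed for 20-30% of maximal phosphorylation in three min.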

Row | SH2 binding enrichment [1] | SH2 binding enrichment [2] | SH2 binding enrichment [3] | Sequence | phosphorylation enrichment [4] | phosphorylation enrichment [5] | phosphorylation enrichment [6] | phosphorylation enrichment [7] | phosphorylation enrichment [8] | phosphorylation enrichment [9] | phosphorylation enrichment [10] | phosphorylation enrichment [11] | phosphorylation enrichment [12] | phosphorylation enrichment [13] | phosphorylation enrichment [14] | phosphorylation enrichment [15] | phosphorylation enrichment [16]
1 | 0.573 | 0.965 | 0.836 | QVQQIYSDSDL [MIB1_Y376_R371Q] | 0.85 | 1.88 | 1.05 | 1.3 | 7.33 | 3.84 | 6.18 | 1.49 | 4.04 | 1.09 | 2.35 | 0.932 | 5.36
2 | 0.485 | 0.795 | 0.606 | FDDDDYDMDFV [BLM_Y296_T298M] | 0.55 | 1.23 | 0.945 | 1.29 | 0.561 | 0.56 | 0.613 | 0.761 | 0.438 | 0.68 | 0.612 | 0.815 | 0.57
3 | 0.457 | 0.746 | 0.652 | GTSLIYWTLFT [G6PC3_Y214] | 5.01 | 1.97 | 3 | 1.82 | 1.68 | 6.02 | 8.42 | 3.96 | 5.81 | 11.2 | 2.09 | 4.45 | 6.99
4 | 0.615 | 0.714 | 0.891 | CDGKEYDPVEA [MAPRE2_Y167_Y162C] | 0.594 | 1.66 | 1.54 | 1.36 | 0.65 | 0.567 | 0.598 | 0.64 | 0.541 | 0.883 | 0.66 | 0.721 | 0.649
5 | 0.482 | 0.849 | 0.561 | KLIETCFSKNF [PLP1_Y50_Y50C_YF] | 0.47 | 1.23 | 1.06 | 1.14 | 0.504 | 0.492 | 0.413 | 0.581 | 0.405 | 0.826 | 0.523 | 0.725 | 0.476
6 | 0.943 | 1.11 | 0.883 | TWNPKYTLRSH [STRN3_Y474] | 0.433 | 0.74 | 0.524 | 0.614 | 0.378 | 0.492 | 0.426 | 0.399 | 0.409 | 0.473 | 0.468 | 0.54 | 0.348
7 | 0.645 | 1.3 | 0.766 | EWRSPYGLTPR [GRIN3B_Y601] | 0.403 | 0.636 | 0.459 | 0.569 | 0.434 | 0.474 | 0.657 | 0.413 | 0.484 | 0.486 | 0.473 | 0.442 | 1.28
8 | 0.407 | 0.446 | 0.806 | LFNQDYPIHCV [GATM_Y227_S231C_YF] | 4.54 | 1.49 | 1.17 | 1.43 | 1.03 | 0.555 | 0.777 | 1.32 | 0.729 | 1.11 | 0.889 | 2.52 | 0.33
9 | 0.402 | 0.818 | 0.566 | ILQSMYGCDVG [HLA-B_Y123_T118I] | 0.403 | 0.935 | 0.893 | 0.816 | 0.48 | 0.517 | 0.489 | 0.659 | 0.438 | 0.546 | 0.51 | 0.624 | 0.569
10 | 0.409 | 0.638 | 0.488 | AKKKMYSRKTK [AGXT_Y231] | 0.546 | 0.505 | 0.455 | 0.595 | 0.443 | 0.496 | 0.431 | 0.437 | 0.457 | 0.478 | 0.385 | 0.476 | 0.42
11 | 0.545 | 0.64 | 0.463 | QDEHGYISWCF [HSPB1_Y133_R136W] | 1.27 | 2.34 | 2.61 | 2.17 | 1.05 | 0.944 | 0.559 | 1 | 0.8 | 1.55 | 0.873 | 1.8 | 0.865
12 | 6.01 | 0.903 | 18.8 | NGSKAYAYVHF [PABPC5_Y147_G146A] | 0.568 | 1.03 | 0.796 | 1.06 | 0.637 | 0.438 | 0.4 | 0.514 | 0.656 | 0.634 | 0.52 | 0.646 | 0.401
13 | 1.24 | 0.96 | 1.38 | GFPVRYTDVSN [DNMT3B_Y815_H814R] | 0.457 | 0.665 | 0.712 | 0.606 | 0.398 | 0.451 | 0.423 | 0.678 | 0.466 | 0.529 | 0.441 | 0.531 | 0.448
14 | 0.493 | 0.663 | 0.799 | RLLVVYRWTQR [HBB_Y36_P37R] | 0.652 | 1.25 | 0.926 | 1.56 | 0.711 | 0.567 | 0.639 | 0.372 | 0.463 | 0.601 | 0.787 | 0.761 | 0.402
15 | 1.88 | 1.99 | 2.1 | KKHIPYREHKS [CSNK1G1_Y205] | 1.31 | 2.94 | 3.87 | 1.76 | 1.81 | 1.19 | 0.888 | 1.84 | 1.03 | 3.25 | 1.25 | 3.18 | 1.46
16 | 0.598 | 0.742 | 0.623 | YDGGCYEQLFV [MC4R_Y41_S36Y] | 1.18 | 1.38 | 1.21 | 2.51 | 11.4 | 3.08 | 2.04 | 1.24 | 1.17 | 1.01 | 0.968 | 1.45 | 2.71
17 | 0.679 | 1.03 | 0.801 | LTSVKYLLSAT [GSDMC_Y26_P23S] | 0.482 | 0.635 | 0.818 | 0.703 | 0.406 | 0.466 | 0.418 | 0.465 | 0.376 | 0.437 | 0.566 | 0.541 | 0.393

Row | SH2 binding enrichment [1] | SH2 binding enrichment [2] | SH2 binding enrichment [3] | Sequence | phosphorylation enrichment [4] | phosphorylation enrichment [5] | phosphorylation enrichment [6] | phosphorylation enrichment [7] | phosphorylation enrichment [8] | phosphorylation enrichment [9] | phosphorylation enrichment [10] | phosphorylation enrichment [11] | phosphorylation enrichment [12] | phosphorylation enrichment [13] | phosphorylation enrichment [14] | phosphorylation enrichment [15] | phosphorylation enrichment [16]
18 | 0.597 | 0.863 | 0.707 | YDCKWYIPLTD [BCR_Y756] | 0.839 | 1.41 | 1.68 | 1.47 | 0.502 | 0.571 | 0.483 | 0.689 | 1.51 | 0.914 | 0.711 | 0.805 | 0.69
19 | 0.542 | 0.95 | 0.836 | RKGGSYSQAAS [HLA-A_Y344_T345S] | 0.523 | 0.625 | 0.401 | 0.599 | 0.294 | 0.38 | 0.537 | 0.498 | 0.656 | 0.738 | 0.491 | 0.567 | 0.741
20 | 0.573 | 0.832 | 0.772 | KLSHLYQDHMQ [WNT5A_Y86_C83S] | 0.439 | 0.844 | 0.712 | 0.794 | 0.647 | 0.455 | 0.442 | 0.462 | 0.437 | 0.616 | 0.579 | 0.703 | 0.406
21 | 0.419 | 0.668 | 0.386 | GRSTYYWPRPR [GAGE12J_Y10] | 0.537 | 0.444 | 0.543 | 0.697 | 0.504 | 0.615 | 0.524 | 0.474 | 0.748 | 0.93 | 0.507 | 0.481 | 0.665
22 | 0.402 | 0.768 | 0.558 | TTKGAYSLSVR [YES1_Y194_I198V] | 0.405 | 0.73 | 0.511 | 0.894 | 0.403 | 0.483 | 0.317 | 0.404 | 0.364 | 0.517 | 0.5 | 0.548 | 0.376
23 | 0.561 | 0.642 | 0.658 | GDGRFYMKEAI [PGM1_Y66] | 0.52 | 1.11 | 1.03 | 0.875 | 0.549 | 0.454 | 0.45 | 0.552 | 0.311 | 0.709 | 0.613 | 0.682 | 0.38
24 | 0.72 | 0.923 | 0.654 | EQSNPYMVLDI [ROCK2_Y1197] | 1.11 | 1.09 | 1.24 | 1.19 | 3.79 | 1.38 | 2.5 | 0.577 | 2.28 | 0.737 | 0.616 | 1.1 | 3.73
25 | 9.41 | 1.06 | 10.1 | TVSQPYSFIEF [SEC22B_Y110_R108Q] | 11.5 | 3.48 | 0.933 | 1.29 | 19.4 | 3.08 | 4.91 | 0.878 | 8.32 | 0.805 | 0.54 | 8.47 | 5.66
26 | 1.48 | 1.2 | 1.01 | LPVHFYGHVEH [PYGM_Y204] | 1.54 | 1.74 | 1.63 | 1.68 | 1.9 | 0.935 | 1.58 | 1.33 | 1.07 | 1.26 | 0.889 | 1.66 | 0.803
27 | 1.12 | 1.54 | 1.08 | VPLLEYYWDIF [CDAN1_Y712_R714W] | 7.97 | 1.46 | 2.12 | 1.43 | 0.521 | 0.813 | 0.879 | 2.27 | 1.54 | 0.923 | 1.54 | 6.87 | 1.67
28 | 0.593 | 1.05 | 0.612 | GLRFGYGGLGG [KRTAP20-2_Y15_V17G_YF] | 0.509 | 0.739 | 0.581 | 0.655 | 0.368 | 0.376 | 0.394 | 0.455 | 0.456 | 0.455 | 0.467 | 0.53 | 0.419
29 | 0.544 | 0.868 | 0.709 | SEDSEYFKAFE [CASQ2_Y178_YF] | 0.608 | 1.41 | 1.34 | 1.46 | 0.471 | 0.582 | 0.572 | 0.714 | 0.557 | 0.974 | 0.653 | 0.882 | 0.651
30 | 1.18 | 0.707 | 0.876 | IPTPAYQSLPA [PDCD6IP_Y727_S730L] | 0.497 | 0.624 | 0.616 | 0.652 | 0.341 | 0.941 | 0.467 | 0.506 | 0.898 | 0.546 | 0.501 | 0.711 | 0.416
31 | 0.552 | 0.687 | 0.299 | QYPDIYAREEV [CRX_Y67_V66I] | 1.23 | 2.14 | 2.02 | 3.09 | 1.29 | 2.6 | 1.84 | 1.63 | 1.48 | 2.12 | 1.02 | 1.41 | 1.54
32 | 0.607 | 0.876 | 0.787 | AELVPYFMEHH [PTPN11_Y80_Q79P_YF] | 0.531 | 1.15 | 1.02 | 0.913 | 0.515 | 0.562 | 0.636 | 0.605 | 0.463 | 0.741 | 0.602 | 0.614 | 0.883
33 | 0.599 | 0.836 | 0.611 | DTERIYDDDFF [UBA1_Y560] | 0.605 | 1.41 | 1.63 | 1.36 | 0.995 | 0.668 | 0.748 | 0.661 | 0.702 | 1.01 | 0.62 | 0.876 | 0.736
